The record followed here is PMC9197078, “The small nonstructural protein NP1 of human bocavirus 1 directly interacts with Ku70 and RPA70 and facilitates viral DNA replication” (PLoS Pathogens, 2022).

To fix the notation:
B1: glutathione S-transferase (GST)-tagged HBoV1 NP1 (GST-NP1) (natural protein)
chain: MSSGNMKDKHRSYKRKGSPERGERKRHWQTTHHRSRSRSPIRHSGERGSGSYHQEHPISHLSSCTASKTSDQVMKTRESTSGKKDNRTNPYTVFSQHRASNPEAPGWCGFYWHSTRIARDGTNSIFNEMKQQFQQLQIDNKIGWDNTRELLFNQKKTLDQKYRNMFWHFRNNSDCERCNYWDDVYRRHLANVSSQTEADEITDEEMLSAAESMEADASN
notes: also called pGST-NP1; source: E. coli BL21/DE3 pLysS, purified

Assay in all cases: BLI; BLItz; His-tagged protein at different concentrations mounted on Ni-NTA biosensors, dipped into 4 μM GST-NP1 or control GST^Flag; Kinetic buffer 50 mM Tris-HCl pH 7.4, 150 mM NaCl
Conditions in all cases: both partners purified
(Biolayer interferometry detects binding as a change in optical thickness at a sensor tip.)

The target in one assay is T1, RPA70^His (UniProt P27694 1-616).
T1 construct: source: E. coli BL21/DE3 pLysS, purified
T1 sequence (P27694 whole entry): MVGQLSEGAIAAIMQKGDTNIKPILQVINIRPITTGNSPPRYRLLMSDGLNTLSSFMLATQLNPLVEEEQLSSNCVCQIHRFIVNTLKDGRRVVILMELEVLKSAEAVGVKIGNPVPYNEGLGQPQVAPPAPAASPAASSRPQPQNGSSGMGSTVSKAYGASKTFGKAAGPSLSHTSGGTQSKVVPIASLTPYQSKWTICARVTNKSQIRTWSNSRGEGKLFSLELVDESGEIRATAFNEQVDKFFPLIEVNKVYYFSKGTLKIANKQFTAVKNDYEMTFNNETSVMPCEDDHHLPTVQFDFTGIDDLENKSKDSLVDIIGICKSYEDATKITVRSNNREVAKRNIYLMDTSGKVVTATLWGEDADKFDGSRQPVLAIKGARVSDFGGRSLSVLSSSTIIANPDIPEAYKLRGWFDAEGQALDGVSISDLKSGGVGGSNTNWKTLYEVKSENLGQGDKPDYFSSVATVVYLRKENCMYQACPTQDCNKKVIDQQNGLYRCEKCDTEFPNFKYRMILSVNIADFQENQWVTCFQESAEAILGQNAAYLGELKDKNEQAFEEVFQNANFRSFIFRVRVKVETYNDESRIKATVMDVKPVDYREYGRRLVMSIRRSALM

A further assay concerns the target T2, RPA70-AB^His (aa181-422) (UniProt P27694 181-422).
T2 construct: also called middle AB domain; source: E. coli BL21/DE3 pLysS, purified

Assay [1] concerns the target T3, hexahistidine (His)-tagged Ku70 (Ku70^His) (UniProt P12956 1-609).
T3 construct: also called full length Ku70; Ku70 monomer; source: E. coli BL21/DE3 pLysS, purified

Assay [2] deals with B1.

T3 sequence (P12956 whole entry): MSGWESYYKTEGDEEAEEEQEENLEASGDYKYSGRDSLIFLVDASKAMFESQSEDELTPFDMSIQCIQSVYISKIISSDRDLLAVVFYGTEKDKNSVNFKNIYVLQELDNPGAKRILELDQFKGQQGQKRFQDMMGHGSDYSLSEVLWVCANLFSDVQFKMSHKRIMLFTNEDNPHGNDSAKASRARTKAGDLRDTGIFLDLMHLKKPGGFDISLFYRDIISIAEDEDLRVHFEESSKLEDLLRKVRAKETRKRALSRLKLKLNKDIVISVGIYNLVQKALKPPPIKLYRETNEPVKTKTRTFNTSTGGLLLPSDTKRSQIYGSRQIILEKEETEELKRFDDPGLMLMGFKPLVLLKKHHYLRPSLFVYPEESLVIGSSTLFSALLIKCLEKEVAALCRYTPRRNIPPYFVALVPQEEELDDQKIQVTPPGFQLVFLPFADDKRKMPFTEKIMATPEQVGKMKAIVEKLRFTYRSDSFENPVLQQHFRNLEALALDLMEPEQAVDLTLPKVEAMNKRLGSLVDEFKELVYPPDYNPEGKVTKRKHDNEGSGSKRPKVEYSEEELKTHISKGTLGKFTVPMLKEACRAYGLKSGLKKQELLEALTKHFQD
T2 sequence (P27694 181-422): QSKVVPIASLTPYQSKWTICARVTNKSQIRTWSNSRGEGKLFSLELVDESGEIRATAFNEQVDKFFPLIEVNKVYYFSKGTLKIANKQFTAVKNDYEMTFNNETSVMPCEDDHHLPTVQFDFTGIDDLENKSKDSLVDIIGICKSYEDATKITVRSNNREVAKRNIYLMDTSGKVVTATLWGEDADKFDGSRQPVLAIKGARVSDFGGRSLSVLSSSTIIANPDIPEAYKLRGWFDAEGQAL

In general, Kd refers to the equilibrium constant for the complex coming apart. For B1, the Kd in the assay with RPA70^His is 122 nM; with RPA70-AB^His (aa181-422), 526 nM; in assay [1], 95 nM.

B2: MBP-Ku70-β-barrel^His (aa266-439) (domain or fragment, UniProt P12956 266-439, looked up)
chain: DIVISVGIYNLVQKALKPPPIKLYRETNEPVKTKTRTFNTSTGGLLLPSDTKRSQIYGSRQIILEKEETEELKRFDDPGLMLMGFKPLVLLKKHHYLRPSLFVYPEESLVIGSSTLFSALLIKCLEKEVAALCRYTPRRNIPPYFVALVPQEEELDDQKIQVTPPGFQLVFLPF
notes: also called MBP-β-barrel^His; Ku70 β-barrel domain; source: E. coli BL21/DE3 pLysS, purified
In the case of B2, the affinity in assay [2], expressed as Kd, was 722 nM.
